From PMC11315935, “Multi-layered heterochromatin interaction as a switch for DIM2-mediated DNA methylation” (Nature Communications, 2024)
Where a chain is given by its changes, count along the chain named. Names may count otherwise.

B1: DIM2L134A/L139A: DIM2 L134A/L139A double mutation (protein)
chain: MDSPDRSHGGMFIDVPAETMGFQEDYLDMFASVLSQGLAKEGDYAHHQPLPAGKEECLEPIAVATTITPSPDDPQLQLQLELEQQFQTESGLNGVDPAPAPESEDEADLPDGFSDESPDDDFVVQRSKHITVDAPVSTAINPRSTFQRIDENDNLVPPPQSTPERVAVEDLLKAAKAAGKNKEDYIEFELHDFNFYVNYAYHPQEMRPIQLVATKVLHDKYYFDGVLKYGNTKHYVTGMQVLELPVGNYGASLHSVKGQIWVRSKHNAKKEIYYLLKKPAFEYQRYYQPFLWIADLGKHVVDYCTRMVERKREVTLGCFKSDFIQWASKAHGKSKAFQNWRAQHPSDDFRTSVAANIGYIWKEINGVAGAKRAAGDQLFRELMIVKPGQYFRQEVPPGPVVTEGDRTVAATIVTPYIKECFGHMILGKVLRLAGEDAEKEKEVKLAKRLKIENKNATKADTKDDMKNDTATESLPTPLRSLPVQVLEATPIESDIVSIVSSDLPPSENNPPPLTNGSVKPKAKANPKPKPSTQPLHAAHVKYLSQELVNKIKVGDVISTPRDDSSNTDTKWKPTDTDDHRWFGLVQRVHTAKTKSSGRGLNSKSFDVIWFYRPEDTPCCAMKYKWRNELFLSNHCTCQEGHHARVKGNEVLAVHPVDWFGTPESNKGEFFVRQLYESEQRRWITLQKDHLTCYHNQPPKPPTAPYKPGDTVLATLSPSDKFSDPYEVVEYFTQGEKETAFVRLRKLLRRRKVDRQDAPANELVYTEDLVDVRAERIVGKCIMRCFRPDERVPSPYDRGGTGNMFFITHRQDHGRCVPLDTLPPTLRQGFNPLGNLGKPKLRGMDLYCGGGNFGRGLEEGGVVEMRWANDIWDKAIHTYMANTPDPNKTNPFLGSVDDLLRLALEGKFSDNVPRPGEVDFIAAGSPCPGFSLLTQDKKVLNQVKNQSLVASFASFVDFYRPKYGVLENVSGIVQTFVNRKQDVLSQLFCALVGMGYQAQLILGDAWAHGAPQSRERVFLYFAAPGLPLPDPPLPSHSHYRVKNRNIGFLCNGESYVQRSFIPTAFKFVSAGEGTADLPKIGDGKPDACVRFPDHRLASGITPYIRAQYACIPTHPYGMNFIKAWNNGNGVMSKSDRDLFPSEGKTRTSDASVGWKRLNPKTLFPTVTTTSNPSDARMGPGLHWDEDRPYTVQEMRRAQGYLDEEVLVGRTTDQWKLVGNSVSRHMALAIGLKFREAWLGTLYD
modifications: left off: His6, N-terminal, cleaved | MBP, N-terminal, cleaved
notes: DIM2 L134A/L139A double mutation
B2: DIM2LLR: DIM2 L134A/L139A/R1104A triple mutation (protein)
chain: B1 chain with R1104A
modifications: left off: His6, N-terminal, cleaved | MBP, N-terminal, cleaved
notes: DIM2 L134A/L139A/R1104A triple mutation
B3: DIM2W581A: DIM2 with W581A mutation to the BAH1 domain (protein)
chain: B1 chain with A134L, A139L, W581A
modifications: left off: His6, N-terminal, cleaved | MBP, N-terminal, cleaved
notes: DIM2 with W581A mutation to the BAH1 domain
B4: DIM2W261A: DIM2 with W261A mutation to the RFTS domain (protein)
chain: B1 chain with A134L, A139L, W261A
modifications: left off: His6, N-terminal, cleaved | MBP, N-terminal, cleaved
notes: DIM2 with W261A mutation to the RFTS domain
B5: HP1W98A: HP1 with H3K9me3-cage mutation W98A (protein)
chain: MPYDPSALSDEEAASSVELDTRSATSSSKKQSRDKKSVKYTIPEPEDFEDEEQNGDGADEGGEDDEEGDEEEEDVYVVEKILDHMLNDDNEPLFLVKAEGYEKKSDQTWEPEDTLIEGASERLKEYFTKIGGREKIFEASAAAQKIKKRGRPSSNSGTPQASSNKRSRKNGDHPLNSEEPQTAKNAAWKPPAGSWEEHIAQLDACEDEDTHKLMVYLTWKNGHKTQHTTDVIYKRCPQKMLQFYERHVRIIKRDPDSEDREGSVSQ
modifications: left off: His6, N-terminal, cleaved | MBP, N-terminal, cleaved
notes: HP1 with H3K9me3-cage mutation W98A

Experiments:
[1] = test system: (CTA)12/(TAG)12 36-mer DNA duplex; test: In vitro DNA methylation assay of DIM2 (WT or mutant); format: biochemical; design: DNA methylation activity: unit not given here; conditions: for reduction of DNA methylation efficiency of DIM2 by mutation: vs WT DIM2
HP1 = test: Size-exclusion chromatography of DIM2-HP1 complex; format: binding, Neurospora Crassa; conditions: 1.0 µM DIM2 and/or 2.5 µM HP1, Superdex 200 increase 10/300 GL, pH 7.5
Protocol: For size-exclusion chromatography analysis, 400 µL of the sample mixture containing 1.0 µM DIM2 and/or 2.5 µM HP1 was loaded onto Superdex 200 increase 10/300 GL column (GE Healthcare) and eluted at a flow rate of 0.5 mL/min, in the buffer containing 20 mM Tris-HCl (pH 7.5), 100 mM NaCl, 5% glycerol, and 5 mM DTT. The proteins in each fraction were then visualized by SDS-PAGE.

[2] = test system: DNA duplex (Upper strand: 5’-ATTATTAATCTAAATTTA-3’); test: Electrophoretic mobility shift assay (EMSA); format: binding; conditions: 0.1 µM DNA duplex, 0, 0.2 or 0.4 µM DIM2, in presence of 0.8 µM H3K9me3 peptide, pH 8.0, 4 °C
Protocol: Each 10-µL reaction mixture contained 0.1 µM DNA duplex (Upper strand: 5’-[…]-3’) mixed with 0, 0.2, or 0.4 µM DIM2, WT or mutant (W261A or W581A), and/or 0.8 µM H3K9me3 peptide in binding buffer containing 20 mM Tris-HCl (pH 8.0), 75 mM NaCl, 10% glycerol, 5 mM DTT, and 2% NP-40. Samples were resolved on a 5% w/v polyacrylamide gel (59:1 for acrylamide:bis-acrylamide) with the running buffer containing 1 × Tris-Glycine (pH 8.6) at 4 °C for 1 h. The gel was stained with SYBR™ Gold (Thermo Fisher Scientific) for 10 min and visualized by ChemiDoc Imaging System (Bio-Rad).

DIM2 = test: In vitro DNA methylation assay: effect of HP1 and H3 peptides on DIM2 activity; format: biochemical, Neurospora Crassa; design: DNA methylation activity of DIM2 in presence of HP1, WT or W98A: unit not given beside the values; conditions: for DNA methylation activity of DIM2 in presence of HP1, WT or W98A: Sup Fig. 1e, (CTA)12/(TAG)12 DNA duplex, 1.0 µM DIM2, 2 µM HP1, 30 °C, 30 min, pH 8.0
Protocol: In vitro DNA methylation assay was performed in a 20-µL reaction mixture. For the substrate specificity assay, the following DNA duplexes were used as substrates: CG DNA (Upper strand: 5’-[…]-3’), hemimethylated CG DNA (Upper strand: 5’-TAAATTTXGATTAATAAT-3’, X = 5-methylcytosine; Lower strand: 5’-[…] -3’), CHG DNA (Upper strand: 5’-[…]-3’), and CHH DNA (Upper strand: 5’-[…]-3’). The reaction mixture contains 0.25 µM DIM2, 1.0 µM DNA duplex, 1.0 µM synthesized H3K9me3 peptide (residues 1-24 of H3 plus a C-terminal tryptophan), 0.5 µM HP1, and 0.56 µM S-adenosyl-L-[methyl-^3H] methionine with a specific activity of 18 Ci/mmol (PerkinElmer) in buffer containing 50 mM Tris-HCl (pH 8.0), 100 mM NaCl, 0.05% β-mercaptoethanol, 5% glycerol, and 200 µg/mL BSA. For the rest of the DNA methylation assay, each reaction mixture contains 1.0 µM DIM2, […] methionine with a specific activity of 18 Ci/mmol (PerkinElmer) in buffer containing 50 mM Tris-HCl (pH 8.0), 100 mM NaCl, 0.05% β-mercaptoethanol, 5% glycerol, and 200 µg/mL BSA. In addition, 1.0 µM synthesized H3K9me3 or H3K9me0 peptide (residues 1-24 of H3 plus a C-terminal tryptophan) and/or 2 µM HP1 protein was included to evaluate the effect of H3 and HP1 regulation. The reaction mixture was incubated at 30 °C for 30 min, unless indicated otherwise, before being quenched by the addition of 5 µL of 10 mM cold SAM. After the reaction, 8 μL of the mixtures was loaded onto Hybond N nylon membrane (GE Healthcare), which was left to dry out at room temperature. The membrane was subsequently washed with 0.2 M ammonium bicarbonate (pH 8.2) two times (20 min per time), deionized water (20 min) once, and 95% ethanol (5 min) once. After air dried, the membrane carrying each sample was transferred into a vial containing 3 mL scintillation buffer (Fisher). The tritium scintillation was measured and recorded by a Beckman LS6500 counter. Each the reaction was repeated three times.

[3] = Fig. 2g, in the presence of HP1 (2 µM) and H3_1-24K9me3 peptide (1.0 µM), 1.0 µM DIM2, 30 °C, 30 min, pH 8.0, replicate 1
[4] = Fig. 2g, in the presence of HP1 (2 µM) and H3_1-24K9me3 peptide (1.0 µM), 1.0 µM DIM2, 30 °C, 30 min, pH 8.0, replicate 2
[5] = Fig. 2g, in the presence of HP1 (2 µM) and H3_1-24K9me3 peptide (1.0 µM), 1.0 µM DIM2, 30 °C, 30 min, pH 8.0, replicate 3
[6] = Fig. 6d, H3_1-24K9me3 binding-associated mutants, 1.0 µM DIM2, 1.0 µM DNA duplex, 30 °C, 30 min, pH 8.0, replicate 1
[7] = Fig. 6d, H3_1-24K9me3 binding-associated mutants, 1.0 µM DIM2, 1.0 µM DNA duplex, 30 °C, 30 min, pH 8.0, replicate 2
[8] = Fig. 6d, H3_1-24K9me3 binding-associated mutants, 1.0 µM DIM2, 1.0 µM DNA duplex, 30 °C, 30 min, pH 8.0, replicate 3

Molecule	DNA methylation activity [1, 3]	DNA methylation activity [1, 4]	DNA methylation activity [1, 5]	DIM2-HP1 complex formation (in words) (HP1)	DNA methylation activity [1, 6]	DNA methylation activity [1, 7]	DNA methylation activity [1, 8]	reduction of DNA methylation efficiency of DIM2 by mutation [1]	DNA-binding affinity of DIM2 (in words) [2]	other results
B1	1.016	1.136	1.188	partial disruption of the DIM2-HP1 complex						
B2	0.066	0.154	0.275	complete disruption of the DIM2-HP1 complex						DNA methylation activity of DIM2 (in words) ([1]; 1.0 µM DIM2, 30 °C, 30 min, pH 8.0): completely abolished the DNA methylation activity
B3					4.016	4.128	4.356	4–5 fold	modestly reduced the DNA-binding affinity	
B4					3.359	3.206	3.347	4–5 fold	modestly reduced the DNA-binding affinity	
B5										DNA methylation activity of DIM2 in presence of HP1, WT or W98A (DIM2; replicate 1): 45.423; DNA methylation activity of DIM2 in presence of HP1, WT or W98A (DIM2; replicate 2): 47.119; DNA methylation activity of DIM2 in presence of HP1, WT or W98A (DIM2; replicate 3): 45.142; increase of activity-stimulation effect of HP1 on DIM2 (DIM2; W98A vs WT HP1): ~ 2 fold
